# According to paper PMC5118228 (EJNMMI Research, 2016):
# Read-outs that look alike come from different tables or passages of the source.
# System: AR42J tumor-bearing mice
# Conditions: male, athymic nu/nu, mouse, in vivo, iv, 0.3 nmol
structure (smiles),measurement,setting,value
"C[C@@H](O)[C@H](NC(=O)[C@@H]1CSSC[C@H](NC(=O)[C@@H](Cc2ccccc2)NC(=O)CN2CCN(CC(=O)O)CCN(CC(=O)O)CCN(CC(=O)O)CC2)C(=O)N[C@@H](Cc2ccc(O)cc2)C(=O)N[C@H](Cc2c[nH]c3ccccc23)C(=O)N[C@@H](CCCCN)C(=O)N[C@@H]([C@@H](C)O)C(=O)N1)C(=O)O [^111In-DOTATATE, metal not drawn]",Tumor uptake,10 min,6.3 ± 1.3 %IA/g
same,Renal activity,1 h,10.9 ± 0.6 %IA/g
same,Tumor uptake,1 h,6.0 ± 1.2 %IA/g
